Reference: the supplement of paper PMC9170038

System: MS2 coat protein
Test: apparent KD of MS2 coat protein; designed switch direction (-1 OFF switch, 1 ON switch): 1; higher = weaker reporter binding
Procedure, shortened: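 Designed RNA switches with common flanks were made on Illumina chips by stalled E. coli RNA polymerase. Titration with SNAP-549-labelled MS2 coat protein doubled from 0.7 or 1.5 nM up to 3 µM. Apparent KD is each design's median over clusters after curve-fitting normalised fluorescence.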

[1] = input ligand: microRNA oligo, concentration not stated
[2] = Eterna round: R95, input ligand: FMN 200 uM
[3] = Eterna round: R95, input ligand: microRNA oligo, concentration not stated
[4] = Eterna round: R95, input ligand: none

UUAAUGAAGUAAGGAUAUACAUGAGGAUCACUCGUAGAAGGUACUAUACAUGAGGAUCACCCAUGUGCCGGUCCGUAGACUGGA [JL SSNG1 1.03] (Eterna round: R96, puzzle: Same State NG 1)
apparent KD of MS2 coat protein (input ligand: FMN 200 uM): 0.554 µM | apparent KD of MS2 coat protein [1]: 0.184 µM | apparent KD of MS2 coat protein (input ligand: none): 1.09 µM

UUAAUGAUGAAAGGAUAUACAUGAGGAAUUCUCGUAGAAGGUUCAUGACAUGAGGAUCACCCAUGUAUCGCUCAGAAGAGCGUA [Mat - Same State NG 1 - JL mod - D29] (Eterna round: R96, puzzle: Same State NG 1)
apparent KD of MS2 coat protein (input ligand: FMN 200 uM): 0.0474 µM | apparent KD of MS2 coat protein [1]: 0.036 µM | apparent KD of MS2 coat protein (input ligand: none): 0.0854 µM

UUAAUGAUGAAAGGAUAUACAUGAGGAAUUCUCGUAGAAGGUUCAUGACAUGAGGAUCACCCAUGUAUCGCUCGAAAGAGCGUA [Mat - Same State NG 1 - JL mod - D30] (Eterna round: R96, puzzle: Same State NG 1)
apparent KD of MS2 coat protein (input ligand: FMN 200 uM): 0.149 µM | apparent KD of MS2 coat protein [1]: 0.0116 µM | apparent KD of MS2 coat protein (input ligand: none): 0.0471 µM

UUAAUGAUGAUAGGAUAUACAUGAGGAAUUCUCGUAGAAGGAUCAUGACAUGAGGAUCACCCAUGUAUCGCUCAGAAGAGCGUA [Mat - Same State NG 1 - JL mod - D32] (Eterna round: R96, puzzle: Same State NG 1)
apparent KD of MS2 coat protein (input ligand: FMN 200 uM): 1.34 µM | apparent KD of MS2 coat protein [1]: 0.368 µM | apparent KD of MS2 coat protein (input ligand: none): 0.528 µM

UUAAUUAAUUAAUUAUACAUGAGGAUCACCCAUGUAAGUGAUCAGGAUAUCAGCUCGAUUAGAGCUGAGAAGGGAUCCAUGUAA [SSNG3/14-A2] (Eterna round: R96, puzzle: Same State NG 3)
apparent KD of MS2 coat protein [1]: 0.078 µM

UUAAUUAAUUAAUUAUACAUGAGGAUCACCCAUGUAAGUGAUCAGGAUAUCAGCUCGUGUAGAGCUGAGAAGGGAUACAUGUAA [SSNG3/12-A4] (Eterna round: R96, puzzle: Same State NG 3)
apparent KD of MS2 coat protein [1]: 0.147 µM

UUAAUUAGUUGAGGAUAUUAUGUCGACUGAGACGACAUGAGGAUCACCCAUGUGAGAAGUGGUUUUAAGAAGGCAACAUUCAUA [JR_SSNG2_Sub088] (Eterna round: R96, puzzle: Same State NG 2)
apparent KD of MS2 coat protein (input ligand: FMN 200 uM): 0.0559 µM | apparent KD of MS2 coat protein [1]: 0.083 µM | apparent KD of MS2 coat protein (input ligand: none): 0.141 µM

UUACAGCACGGGUAGGAUAUGUAGGGUGGUACAUGAGGAUCACCCAUGUAUCCACCCUUCUAACGGCAGAAGGGCCUGUCGCUGC [Riarve] (Eterna round: R96, puzzle: Same State 2)
apparent KD of MS2 coat protein (input ligand: FMN 200 uM): 0.0283 µM | apparent KD of MS2 coat protein [1]: 0.0112 µM | apparent KD of MS2 coat protein (input ligand: none): 0.0275 µM

UUACAGUGCGGGUAGGAUAUGUAGGGUGGUACAUGAGGAUCACCCAUGUAUCCACCCUUCUACCGGCAGAAGGGCCUGUCACUGC [Enlaeror] (Eterna round: R96, puzzle: Same State 2)
apparent KD of MS2 coat protein (input ligand: FMN 200 uM): 0.0172 µM | apparent KD of MS2 coat protein [1]: 0.00964 µM | apparent KD of MS2 coat protein (input ligand: none): 0.017 µM

UUACUCAUGUAAGGAUAUGCAGCCGUUUCGGCUGCAGAAGGUACUAUAAUACAUGAGGAUCACCCAUGUCUCUAUAAUUUAGUG [JL SSNG1 1.30] (Eterna round: R96, puzzle: Same State NG 1)
apparent KD of MS2 coat protein (input ligand: FMN 200 uM): 0.102 µM | apparent KD of MS2 coat protein [1]: 0.0386 µM | apparent KD of MS2 coat protein (input ligand: none): 0.0497 µM

UUAUACUAGAGAGGAUAUGCAGAGGAUCACCCUGCAGAAGGCUCGUUAGAGAGGAUAUGCAGAGGAUCACCCUGCAGAAGGCUC [pwkr ssNG DX.23] (Eterna round: R96, puzzle: Same State NG 1)
apparent KD of MS2 coat protein (input ligand: FMN 200 uM): 0.0172 µM | apparent KD of MS2 coat protein [1]: 0.00862 µM | apparent KD of MS2 coat protein (input ligand: none): 0.0152 µM

UUAUCUCAGACAUGAGGAUCACCCAUGUUUUUUUGUCUUAGACAGGAUAUAGUAGUAUCGAAAUACUAGAAGGGUCAUUUUAUU [JR_SSNG3_Sub023] (Eterna round: R96, puzzle: Same State NG 3)
apparent KD of MS2 coat protein (input ligand: FMN 200 uM): 0.0184 µM | apparent KD of MS2 coat protein [1]: 0.0235 µM | apparent KD of MS2 coat protein (input ligand: none): 0.0289 µM

UUAUUAUACGUAGGAUAUUGAUGAUUGAUAGUACAAGAAGGACGAACAUGAGGAUCACCCAUGUAUAUUAAAAUGAGUUUGAAU [JR_SSNG1_Sub077] (Eterna round: R96, puzzle: Same State NG 1)
apparent KD of MS2 coat protein (input ligand: FMN 200 uM): 0.0728 µM | apparent KD of MS2 coat protein [1]: 0.0528 µM | apparent KD of MS2 coat protein (input ligand: none): 0.0551 µM

UUCACCUUUUAUAACAUGAGGAUCACCCAUGUAUAUUGUACGUAGGAUAUCGAUGUUAGUUUUUUCGAGAAGGACGAUGUAAGU [JR_SSND3_Sub049] (Eterna round: R96, puzzle: Same State NG 3)
apparent KD of MS2 coat protein (input ligand: FMN 200 uM): 0.0296 µM | apparent KD of MS2 coat protein [1]: 0.0407 µM | apparent KD of MS2 coat protein (input ligand: none): 0.0539 µM

UUCACCUUUUAUAACAUGAGGAUCACCCAUGUAUAUUGUACGUAGGAUAUCGAUGUUUGUUUUUUCGAGAAGGACGAUGUAAGU [JR_SSND3_Sub050] (Eterna round: R96, puzzle: Same State NG 3)
apparent KD of MS2 coat protein (input ligand: FMN 200 uM): 0.037 µM | apparent KD of MS2 coat protein [1]: 0.0254 µM | apparent KD of MS2 coat protein (input ligand: none): 0.0389 µM

UUCCCAGCGGGAGGAUAUGGUGCCUUGUUGGUGCUAGAAGGUCCAACAUGAGGAUCACCCAUGUGGGAGUGGUCGAAAGACCUC [SS NG10LRO09] (Eterna round: R96, puzzle: Same State NG 1)
apparent KD of MS2 coat protein (input ligand: FMN 200 uM): 0.224 µM | apparent KD of MS2 coat protein [1]: 0.186 µM | apparent KD of MS2 coat protein (input ligand: none): 0.318 µM

UUCCCAGCGGGAGGAUAUGGUGCCUUGUUGGUGCUAGAAGGUCCAACAUGAGGAUCACCCAUGUGGGAGUGGUUGAGAGACCUC [SS NG10LRO11] (Eterna round: R96, puzzle: Same State NG 1)
apparent KD of MS2 coat protein (input ligand: FMN 200 uM): 0.225 µM | apparent KD of MS2 coat protein [1]: 0.2 µM | apparent KD of MS2 coat protein (input ligand: none): 0.274 µM

UUCCCAUCGGGAGGAUAUGGUACCUUAUUGGUUCUAGAAGGUCCAACAUGAGGAUCACCCAUGUGGGAGUGGUCUAAUGACCUC [SS NG10LRO04] (Eterna round: R96, puzzle: Same State NG 1)
apparent KD of MS2 coat protein (input ligand: FMN 200 uM): 0.247 µM | apparent KD of MS2 coat protein [1]: 0.326 µM | apparent KD of MS2 coat protein (input ligand: none): 0.311 µM

UUCGAGUAGCAAGGAUAUCUUAUUUAGAUUUUAAGAGAAGGUGCUUCACAGCUACAUGAGGAUCACCCAUGUCUUUCUUCUUAU [JR_SSNG1_Sub065] (Eterna round: R96, puzzle: Same State NG 1)
apparent KD of MS2 coat protein [1]: 0.0273 µM

UUCUAACAUGAGGAUCACCCAUGUCAUAUGACAUGAGGAUAUGUACAGACUUCGGUCUGUACAGAAGGCAUGUUAG [SS1 - 1011 Omei Mod 7] (puzzle: Same State 1)
apparent KD of MS2 coat protein [2]: 0.0316 µM | apparent KD of MS2 coat protein [3]: 0.0107 µM | apparent KD of MS2 coat protein [4]: 0.0205 µM

UUCUCUUUUUAGAGACAAGCUUUUUGAUCACAUGAGGAUCACCCAUGUCUCGUCUUAUGAUCUACUUCGGUAGAUCU [BA Sensor hsa-mir-208a - 2 - 5] (puzzle: Sensor for hsa-mir-208a)
apparent KD of MS2 coat protein [2]: 0.155 µM | apparent KD of MS2 coat protein [3]: 0.0139 µM | apparent KD of MS2 coat protein [4]: 0.144 µM

UUGAAGAACUAAGGAUAUUGAAUACAUAUGUUUAACAUGAGGAUCACCCAUGUGGGUUGCGGUAUCGAGAAGGUAGAUUACUAG [Mat - Same State NG 2 - JL mod - D10] (Eterna round: R96, puzzle: Same State NG 2)
apparent KD of MS2 coat protein [1]: 0.0834 µM

UUGAAGAAUAAAGGAUAUUGAAUACAUAUGUUUAACAUGAGGAUCACCCAUGUGGGUUGCGGUAUCGAGAAGGUUAAUUACUAG [Mat - Same State NG 2 - JL mod - D11] (Eterna round: R96, puzzle: Same State NG 2)
apparent KD of MS2 coat protein (input ligand: FMN 200 uM): 0.151 µM | apparent KD of MS2 coat protein [1]: 0.124 µM | apparent KD of MS2 coat protein (input ligand: none): 0.139 µM

UUGAAGAAUUAAGGAUAUCGAGUCGUCAAAUUAAACAUGAGGAUCACCCAUGUGGGUUGUGGUAUCGAGAAGGUAAAUUACUAA [JR_SSNG2_Sub100] (Eterna round: R96, puzzle: Same State NG 2)
apparent KD of MS2 coat protein (input ligand: FMN 200 uM): 0.0571 µM | apparent KD of MS2 coat protein [1]: 0.0664 µM | apparent KD of MS2 coat protein (input ligand: none): 0.0847 µM

UUGAAGAAUUAAGGAUAUUGAUUACAUAUGUUAAACAUGAGGAUCACCCAUGUGGGUUGCGGUAUCGAGAAGGUAAAUUAAAAG [Mat - same State NG 2 - JL mod - D78] (Eterna round: R96, puzzle: Same State NG 2)
apparent KD of MS2 coat protein (input ligand: FMN 200 uM): 0.171 µM | apparent KD of MS2 coat protein [1]: 0.123 µM | apparent KD of MS2 coat protein (input ligand: none): 0.146 µM

UUGAAUAAUUAAGGAUAUUGAGUACAUAUGUUUAACAUGAGGAUCACCCAUGUGGGUUGCGGUAUCGAGAAGGUAAAUUACUAG [Mat - same State NG 2 - JL mod - D67] (Eterna round: R96, puzzle: Same State NG 2)
apparent KD of MS2 coat protein (input ligand: FMN 200 uM): 0.145 µM | apparent KD of MS2 coat protein [1]: 0.0838 µM | apparent KD of MS2 coat protein (input ligand: none): 0.125 µM

UUGAGGAAUUAAGGAUAUUGAGUACAUAUGUUUAACAUGAGGAUCACCCAUGUGGGUUGCGGUAUCGAGAAGGUAAAUUACUAG [JL SSNG2 1.46] (Eterna round: R96, puzzle: Same State NG 2)
apparent KD of MS2 coat protein (input ligand: FMN 200 uM): 0.141 µM | apparent KD of MS2 coat protein [1]: 0.0838 µM | apparent KD of MS2 coat protein (input ligand: none): 0.168 µM

UUGCGGGAUUGAGGAUAUUGAGUACAUAUGUUUAACAUGAGGAUCACCCAUGUGGGUUGCGGUAUCGAGAAGGUAACUUACUAC [salish99_SSNG2_r04_805] (Eterna round: R96, puzzle: Same State NG 2)
apparent KD of MS2 coat protein [1]: 0.0755 µM

UUGCGGGCUUGAGGAUAUUGAGUACAUAUGUUUAACAUGAGGAUCACCCAUGUGGGUUGCGGUAUCGAGAAGGUAACUUCCUAC [salish99_SSNG2_r04_808] (Eterna round: R96, puzzle: Same State NG 2)
apparent KD of MS2 coat protein (input ligand: FMN 200 uM): 0.169 µM | apparent KD of MS2 coat protein [1]: 0.0925 µM | apparent KD of MS2 coat protein (input ligand: none): 0.153 µM

UUGCGGGUUUGAGGAUAUUGAGUACAUAUGUUUAACAUGAGGAUCACCCAUGUGGGUUGCGGUAUCGAGAAGGUAACUUACUAC [salish99_SSNG2_r04_806] (Eterna round: R96, puzzle: Same State NG 2)
apparent KD of MS2 coat protein (input ligand: FMN 200 uM): 0.179 µM | apparent KD of MS2 coat protein [1]: 0.0689 µM | apparent KD of MS2 coat protein (input ligand: none): 0.11 µM
